# Source: paper PMC3061051 (Nucleic Acids Research, 2010)
# Values joined by “and” are separate entries in the source; they are usually repeats but may differ in a detail not shown here. Equal values may be shown once.
# B1: RECQ1^49-616 (truncated catalytic core of human RECQ1 helicase) (domain or fragment, UniProt P46063 49-616, looked up)
# chain: CLEDSDAGASNEYDSSPAAWNKEDFPWSGKVKDILQNVFKLEKFRPLQLETINVTMAGKEVFLVMPTGGGKSLCYQLPALCSDGFTLVICPLISLMEDQLMVLKQLGISATMLNASSSKEHVKWVHAEMVNKNSELKLIYVTPEKIAKSKMFMSRLEKAYEARRFTRIAVDEVHCCSQWGHDFRPDYKALGILKRQFPNASLIGLTATATNHVLTDAQKILCIEKCFTFTASFNRPNLYYEVRQKPSNTEDFIEDIVKLINGRYKGQSGIIYCFSQKDSEQVTVSLQNLGIHAGAYHANLEPEDKTTVHRKWSANEIQVVVATVAFGMGIDKPDVRFVIHHSMSKSMENYYQESGRAGRDDMKADCILYYGFGDIFRISSMVVMENVGQQKLYEMVSYCQNISKCRRVLMAQHFDEVWNSEACNKMCDNCCKDSAFERKNITEYCRDLIKILKQAEELNEKLTPLKLIDSWMGKGAAKLRVAGVVAPTLPREDLEKIIAHFLIQQYLKEDYSFTAYATISYLKIGPKANLLNNEAHAITMQVTKSTQNSFRAESSQTCHSEQGDKKME
# B2: Y564A-RECQ1^T1 (domain or fragment, human, UniProt P46063 49-616, looked up)
# chain: CLEDSDAGASNEYDSSPAAWNKEDFPWSGKVKDILQNVFKLEKFRPLQLETINVTMAGKEVFLVMPTGGGKSLCYQLPALCSDGFTLVICPLISLMEDQLMVLKQLGISATMLNASSSKEHVKWVHAEMVNKNSELKLIYVTPEKIAKSKMFMSRLEKAYEARRFTRIAVDEVHCCSQWGHDFRPDYKALGILKRQFPNASLIGLTATATNHVLTDAQKILCIEKCFTFTASFNRPNLYYEVRQKPSNTEDFIEDIVKLINGRYKGQSGIIYCFSQKDSEQVTVSLQNLGIHAGAYHANLEPEDKTTVHRKWSANEIQVVVATVAFGMGIDKPDVRFVIHHSMSKSMENYYQESGRAGRDDMKADCILYYGFGDIFRISSMVVMENVGQQKLYEMVSYCQNISKCRRVLMAQHFDEVWNSEACNKMCDNCCKDSAFERKNITEYCRDLIKILKQAEELNEKLTPLKLIDSWMGKGAAKLRVAGVVAPTLPREDLEKIIAHFLIQQYLKEDYSFTAAATISYLKIGPKANLLNNEAHAITMQVTKSTQNSFRAESSQTCHSEQGDKKME
# B3: W227A-F231A-RECQ1^T1 (domain or fragment, human, UniProt P46063 49-616, looked up)
# chain: CLEDSDAGASNEYDSSPAAWNKEDFPWSGKVKDILQNVFKLEKFRPLQLETINVTMAGKEVFLVMPTGGGKSLCYQLPALCSDGFTLVICPLISLMEDQLMVLKQLGISATMLNASSSKEHVKWVHAEMVNKNSELKLIYVTPEKIAKSKMFMSRLEKAYEARRFTRIAVDEVHCCSQAGHDARPDYKALGILKRQFPNASLIGLTATATNHVLTDAQKILCIEKCFTFTASFNRPNLYYEVRQKPSNTEDFIEDIVKLINGRYKGQSGIIYCFSQKDSEQVTVSLQNLGIHAGAYHANLEPEDKTTVHRKWSANEIQVVVATVAFGMGIDKPDVRFVIHHSMSKSMENYYQESGRAGRDDMKADCILYYGFGDIFRISSMVVMENVGQQKLYEMVSYCQNISKCRRVLMAQHFDEVWNSEACNKMCDNCCKDSAFERKNITEYCRDLIKILKQAEELNEKLTPLKLIDSWMGKGAAKLRVAGVVAPTLPREDLEKIIAHFLIQQYLKEDYSFTAYATISYLKIGPKANLLNNEAHAITMQVTKSTQNSFRAESSQTCHSEQGDKKME
# B4: Δ8-Y564A-RECQ1^FL (natural protein, human, UniProt P46063 1-649, looked up)
# chain: MASVSALTEELDSITSELHAVEIQIQELTERQQELIQKKKVLTKKIKQCLEDSDAGASNEYDSSPAAWNKEDFPWSGKVKDILQNVFKLEKFRPLQLETINVTMAGKEVFLVMPTGGGKSLCYQLPALCSDGFTLVICPLISLMEDQLMVLKQLGISATMLNASSSKEHVKWVHAEMVNKNSELKLIYVTPEKIAKSKMFMSRLEKAYEARRFTRIAVDEVHCCSQWGHDFRPDYKALGILKRQFPNASLIGLTATATNHVLTDAQKILCIEKCFTFTASFNRPNLYYEVRQKPSNTEDFIEDIVKLINGRYKGQSGIIYCFSQKDSEQVTVSLQNLGIHAGAYHANLEPEDKTTVHRKWSANEIQVVVATVAFGMGIDKPDVRFVIHHSMSKSMENYYQESGRAGRDDMKADCILYYGFGDIFRISSMVVMENVGQQKLYEMVSYCQNISKCRRVLMAQHFDEVWNSEACNKMCDNCCKDSAFERKNITEYCRDLIKILKQAEELNEKLTPLKLIDSWMGKGAAKLRVAGVVAPTLPREDLEKIIAHFLIQQYAAGPKANLLNNEAHAITMQVTKSTQNSFRAESSQTCHSEQGDKKMEEKNSGNFQKKAANMLQQSGSKNTGAKKRKIDDA
# B5: Fork 20 duplex (dsDNA)
# DNA 1: GAACGAACACATCGGGTACGTTTTTTTTTTTTTTTTTTTTTTTTTTTTTT
# DNA 2: TTTTTTTTTTTTTTTTTTTTTTTTTTTTTTCGTACCCGATGTGTTCGTTC
# B6: Full-length RECQ1 (RECQ1^FL) (natural protein, human, UniProt P46063 1-649, looked up)
# chain: MASVSALTEELDSITSELHAVEIQIQELTERQQELIQKKKVLTKKIKQCLEDSDAGASNEYDSSPAAWNKEDFPWSGKVKDILQNVFKLEKFRPLQLETINVTMAGKEVFLVMPTGGGKSLCYQLPALCSDGFTLVICPLISLMEDQLMVLKQLGISATMLNASSSKEHVKWVHAEMVNKNSELKLIYVTPEKIAKSKMFMSRLEKAYEARRFTRIAVDEVHCCSQWGHDFRPDYKALGILKRQFPNASLIGLTATATNHVLTDAQKILCIEKCFTFTASFNRPNLYYEVRQKPSNTEDFIEDIVKLINGRYKGQSGIIYCFSQKDSEQVTVSLQNLGIHAGAYHANLEPEDKTTVHRKWSANEIQVVVATVAFGMGIDKPDVRFVIHHSMSKSMENYYQESGRAGRDDMKADCILYYGFGDIFRISSMVVMENVGQQKLYEMVSYCQNISKCRRVLMAQHFDEVWNSEACNKMCDNCCKDSAFERKNITEYCRDLIKILKQAEELNEKLTPLKLIDSWMGKGAAKLRVAGVVAPTLPREDLEKIIAHFLIQQYLKEDYSFTAYATISYLKIGPKANLLNNEAHAITMQVTKSTQNSFRAESSQTCHSEQGDKKMEEKNSGNFQKKAANMLQQSGSKNTGAKKRKIDDA
# B7: Y564A-RECQ1^FL (natural protein, human, UniProt P46063 1-649, looked up)
# chain: MASVSALTEELDSITSELHAVEIQIQELTERQQELIQKKKVLTKKIKQCLEDSDAGASNEYDSSPAAWNKEDFPWSGKVKDILQNVFKLEKFRPLQLETINVTMAGKEVFLVMPTGGGKSLCYQLPALCSDGFTLVICPLISLMEDQLMVLKQLGISATMLNASSSKEHVKWVHAEMVNKNSELKLIYVTPEKIAKSKMFMSRLEKAYEARRFTRIAVDEVHCCSQWGHDFRPDYKALGILKRQFPNASLIGLTATATNHVLTDAQKILCIEKCFTFTASFNRPNLYYEVRQKPSNTEDFIEDIVKLINGRYKGQSGIIYCFSQKDSEQVTVSLQNLGIHAGAYHANLEPEDKTTVHRKWSANEIQVVVATVAFGMGIDKPDVRFVIHHSMSKSMENYYQESGRAGRDDMKADCILYYGFGDIFRISSMVVMENVGQQKLYEMVSYCQNISKCRRVLMAQHFDEVWNSEACNKMCDNCCKDSAFERKNITEYCRDLIKILKQAEELNEKLTPLKLIDSWMGKGAAKLRVAGVVAPTLPREDLEKIIAHFLIQQYLKEDYSFTAAATISYLKIGPKANLLNNEAHAITMQVTKSTQNSFRAESSQTCHSEQGDKKMEEKNSGNFQKKAANMLQQSGSKNTGAKKRKIDDA
# Tests used:
# AUC [1] = biological target: the molecule itself; test: AUC
# SEC = biological target: the molecule itself; test: SEC
# AUC [2] = biological target: the molecule itself; test: AUC; remark: listed apart in the source
# W227A-F231A-RECQ1T1 = W227A-F231A-RECQ1T1 (human, UniProt P46063 49-616, W227A;F231A); test: EMSA
# RECQ1T1 (RECQ1 49-616) = RECQ1T1 (RECQ1 49-616) (human, UniProt P46063 49-616); test: EMSA
binder,measurement,setting,value
B1,stoichiometry N,AUC [1],2
B2,stoichiometry N,SEC,2
B3,stoichiometry N,SEC,2
B4,stoichiometry N,AUC [2],2
B5,Kd,W227A-F231A-RECQ1T1,10 ± 2 nM
same,Kd,RECQ1T1 (RECQ1 49-616),8 ± 2 nM
B6,stoichiometry N,AUC [2],4 and 2
B7,stoichiometry N,AUC [2],2 and 4
